What was measured:
[1] = system: MS2 coat protein; test: apparent KD of MS2 coat protein, switch ON state; designed switch direction (-1 OFF switch, 1 ON switch): -1; higher = weaker reporter binding; conditions: FMN input: 0 or 200 uM; Eterna round: R93 (includes R88 designs)
How it was run: (§1)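 Apparent KD stands for the median, per design, of fits to normalised cluster binding curves. The curves came from titrating on-chip-transcribed RNA switches on Illumina sequencing clusters with SNAP-549-labelled MS2 coat protein, twofold from 0.7 or 1.5 nM to 3 µM. Buffer was 100 mM Tris-HCl pH 7.5, 80 mM KCl, 4 mM MgCl2, without or with constant ligand.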

[2] = system: MS2 coat protein; test: apparent KD of MS2 coat protein, switch OFF state (with FMN for OFF switches, without FMN for ON switches); designed switch direction (-1 OFF switch, 1 ON switch): -1; higher = weaker reporter binding; conditions: FMN input: 0 or 200 uM; Eterna round: R93 (includes R88 designs)
How it was run: as §1

Sequence	apparent KD of MS2 coat protein [1] [nM]	apparent KD of MS2 coat protein [2] [nM]
AAGAAGAGAGGAUAUACAUGAGGAUCACCCAUGUAAAAGAAAGAAGGGAAAGAGAAAAGUAGAAGGCUCAAGAA [Usermaatre-setpenamun Rudamun]	25.6	31
AAGAAGAUAGGAUAUACAAAAUAAAAGAAAAGAAAGAAAGAACAUGAGGAUCACCCAUGUAGAAGGGUCAAGAA [Kheperkare Senusret I]	54.6	56.5
AAGAAGAUAGGAUAUACAAGAAAGAAAGAAAAGAAAAGAAAACAUGAGGAUCACCCAUGUAGAAGGAUCUAGAA [EteRNA is fun!]	30.8	15.9
AAGAAGCUAGGAUAUACAUGAGGAUCACCCAUGUAAAAGAAAGAAGGGAAAGAGAAAAGUAGAAGGAGCAAGAA [Tefnakht]	26.6	34.4
AAGAAGGCAGGAUAUACAUGAGGAUCACCCAUGUAAAAGAAAGAAAAGGGAAAGAAAAGUAGAAGGGCCAAGAA [Kamose]	35.4	72.1
AAGAAGGUAGGAUAUGCUAAAGAAAUAAAAAUAAAUAAAGAACAUGAGGAUCACCCAUGUAGAAGGGCCAAGAA [Mer[...]re]	47.3	27.9
AAGAAGUCAGGAUAUACAUGAGGAUCACCCAUGUAAAAGAAAGAAAGGGAAAAGAAAAGUAGAAGGGACAAGAA [Usermaatre-akhenamun Ramesses VIII]	18.2	25.5
AAGAAGUCAGGAUAUACAUGAGGAUCACCCAUGUAAAAGAAAGAAGGGAAAGAGAAAAGUAGAAGGGACAAGAA [Usermaatre-setpenamun Takelot III]	31.9	19.9
AAGAAGUCAGGAUAUGCCAGAGAACAAGAAAGUGAAGAAUAGCAGAAGGGACAUGAGGAUCACCCAUGUAAAGA [Opal 11]	46.9	34.5
AAGAAGUCAGGAUAUGCCAGAGAUCACGAAAGUGACUAAGGGCAGAAGGGACAUGAGGAUCACCCAUGUAAAGA [Opal 5]	63.4	62.1
AAGAAGUGAGGAUAUCGAAGACUGUCGAAAAGACAGUCGAACGAGAAGGCACAUGAGGAUCACCCAUGUGAGAA [Marsurpial 65% 1]	31	55.6
AAGAAGUGAGGAUAUGCAAAAGAAAAGAAAAGAAAAGAAAAGCAGAAGGCACAUGAGGAUCACCCAUGUAAGAA [Petubastis III]	12.8	28.9
AAGAAUCGAGGAUAUACAUGAGGAUCACCCAUGUAAAAGAAAGAAAGGGAAAAGAAAAGUAGAAGGCGAAAGAA [Usermaatre-setepenre Shoshenq III]	23.4	23.6
AAGAAUGGAGGAUAUACAUGAGGAUCACCCAUGUAAAAGAAAGAGGGAAAAGAGAAAAGUAGAAGGCCAAAGAA [Ptolemy VII Neos Philopator]	36	34.4
AAGACUACAGGAUAUACAUGAGGAUCACCCAUGUAACUGACAAGUAGAGUACGGAGAAGUAGAAGGGUAGUCAA [Ruby 34]	14.9	17.6
AAGACUAGAGGAUAUACAUGAGGAUCACCCAUGUAACUGUCAGGAAACUGACGGAGAAGUAGAAGGCUAGUCAA [Mat - Exclusion 3 - JL mod - D85]	16.1	20.2
AAGGGACAUGAGGAUCACCCAUGUAAGGAUAUCGGAAAAGGAAAAAAAAAAAAUAAGACGAGAAGGUACAAAAA [Mat - Exclusion 1 - Eli mod - D80]	70.2	73.5

Sequence	apparent KD of MS2 coat protein [1] [nM]	apparent KD of MS2 coat protein [2] [nM]
AAUGCGGCAGGAUAUACAUGAGGAUCACCCAUGUACAUCAGAUAUAUGGUCGAACCAUGUAGAAGGGCCGCAAA [Ex 3May 57]	87.3	202
ACAGUUACAGGAUAUACAAGGGAAAAUAAAAAUAAACUUCAACAUGAGGAUCACCCAUGUAGAAGGGUAACUGA [Ex2 Design 199: Random 14]	35.5	112
ACAUGACAUGAGGAUCACCCAUGUGAGGAUAUGCGAAAAAAAUUUUUAAAAAAAAUUGGCAGAAGGCACAAAAU [George Ritzer.]	88.9	99.1
ACAUGUACAGGAUAUACAUGGAAAAAAAAAAAAAAAAAACUACAUGAGGAUCACCCAUGUAGAAGGGUACAUGA [Ex2 Design 193: Random 12B]	25.8	25.7
ACCUUACAUGAGGAUCACCCAUGUUAGGAUAUCUCGCUUUCGCAAUCACAGCGCAAGCAGAGAAGGGACACGGG [Esceari]	28.3	66.6
ACUAUACGAGGAUAUGCUGUCAACACUAAGGAAUUCGUAUGACAUGAGGAUCACCCAUGUAGAAGGCGUAUACU [JR_Exc002_Sub510]	23.3	27.7
AGAAAACAUGAGGAUCACCCAUGUCAGGAUAUGUAAAAGAAAAGAAAAGAAAGAAGAAGCAGAAGGGACAAGAA [Sekhemkhet]	28.8	36.8
AGAAACGAAGGAUAUACAUGAGGAUCACCCAUGUAAAGAAAGAGGAGAGCCACAAGAAGUAGAAGGUCGAAGAA [JR_Exc003_Sub007]	27.4	50.7
AGAAAGACAGGAUAUACAUGAGGAUCACCCAUGUAAAAGAAAGAAAAGGGAAAGAAAAGUAGAAGGGUCAAAGA [Ruby 64]	22.1	42.1
AGAAAGUCAGGAUAUGCAGAAAAAAAAACGAAAAAAAAACUGCAGAAGGGACAUGAGGAUCACCCAUGUUAAGA [Mat - Exclusion 4 - Mayanna - D130]	49	49
AGAAUUGUAGGAUAUACAUGAGGAUCACCCAUGUGGGAGGUGGAGCAAACAAGACGAGGUAGAAGGACAACGAC [JR_Exc003-Sub904]	134	125
AGAGAGUCAGGAUAUACGAAAGAAAAGGGAAACAACAAGGGACAUGAGGAUCACCCAUGUAGAAGGGACGAGAA [Diamond 99]	99.8	49.8
AGAGGACAUGAGGAUCACCCAUGUGAGGAUAUGCAAAACUAAGGACAAGAUCGGUAUAGCAGAAGGCACGUAGU [JR_EXc001_Sub808]	46.7	78.2
AGCAAGUGAGGAUAUGCGAAGUCAGGACACACACUGACGAAGCAGAAGGCACAUGAGGAUCACCCAUGUAAGCA [JR_Exclusion-4 65% 1]	33.1	27.1
AGCAUGUGAGGAUAUGUGACCCUCGUCCUAAGGAUGAGGAAAUAGAAGGCACAUGAGGAUCACCCAUGUGAUGA [Eratusar]	65.4	293
AGCUAACAUGAGGAUCACCCAUGUCAGGAUAUGCAAAGAUCGAUCGAACGAUCGAUAAGCAGAAGGGACACUGA [Amethyst 94]	27.1	47.5
AGCUAGACAGGAUAUACGAACAUGUCAAAAGACGUAAGGGAACAUGAGGAUCACCCAUGUAGAAGGGUCUAGCA [Diamond 50]	28.5	63.9

— the supplement of paper PMC9170038
